What was measured:
GST-FliJ = target: T1, GST-FliJ (Salmonella enterica, UniProt P0A1K1 1-147); test: pull-down; GST affinity chromatography: purified His-FliI or His-FliI-5A mixed with purified GST or GST fusions, dialysed overnight against PBS at 4 °C; Glutathione Sepharose 4B; wash 10 ml PBS; elution with 10 mM reduced glutathione; CBB and anti-FliI immunoblot; conditions: both partners purified
T1 construct: FliJ of Salmonella enterica; source: S. enterica SJW1368, purified (Glutathione Sepharose 4B)
T1 sequence (P0A1K1 whole entry, the tested form may be a part): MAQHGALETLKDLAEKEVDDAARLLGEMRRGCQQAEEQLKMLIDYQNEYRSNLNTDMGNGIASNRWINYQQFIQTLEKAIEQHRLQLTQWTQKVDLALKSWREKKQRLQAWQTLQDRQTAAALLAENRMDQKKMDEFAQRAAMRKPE

[1] = target: the molecule itself; test: negative-stain electron microscopy; purified FliI 1 μM in 50 mM Tris-HCl pH 8.0, 113 mM NaCl, 0.8 mM EDTA, 1 mM DTT with 5 mM MgCl2, 5 mM ADP, 5 mM AlCl3, 15 mM NaF, 20 min at room temperature; uranyl acetate stain; reference-free 2D class averages (RELION); monomers to hexameric ring

Binder | binding result (GST-FliJ) | stoichiometry N [1]
His-FliI(R26A/R27A/R33A/R76A/R93A) (enzyme, FliI of Salmonella enterica, UniProt P26465, with R26A/R27A/R33A/R76A/R93A; also called FliI-5A; His-FliI-5A; source: S. enterica SJW1368, pTrc99A-based plasmid co-expressing FliH; in lysate (Ni pull-down) and purified (Ni-NTA, then SEC to remove FliH)) MTTRLTRWLTALDNFEAKMALLPAVAAYGRLTAATGLVLEATGLQLPLGATCIIERQDGPETKEVESEVVGFNGQALFLMPLEEVEGILPGAAVYARNGHGDGLQSGKQLPLGPALLGRVLDGGGKPLDGLPAPDTLETGALITPPFNPLQRTPIEHVLDTGVRAINALLTVGRGQRMGLFAGSGVGKSVLLGMMARYTRADVIVVGLIGERGREVKDFIENILGPDGRARSVVIAAPADVSPLLRMQGAAYATRIAEDFRDRGQHVLLIMDSLTRYAMAQREIALAIGEPPATKGYPPSVFAKLPALVERAGNGIHGGGSITAFYTVLTEGDDQQDPIADSARAILDGHIVLSRRLAEAGHYPAIDIEASISRAMTALITEQHYARVRLFKQLLSSFQRNRDLVSVGAYAKGSDPMLDKAITLWPQLEAFLQQGIFERADWEDSLQALDLIFPTV | binds | 6
His-FliI(R26A/R27A/R33A) (enzyme, FliI of Salmonella enterica, UniProt P26465, with R26A/R27A/R33A; also called FliI-3A; His-FliI-3A; source: E. coli BL21 (DE3) Star, pET19b-based plasmid, purified (Ni-NTA, Superdex 200 SEC)) MTTRLTRWLTALDNFEAKMALLPAVAAYGRLTAATGLVLEATGLQLPLGATCIIERQDGPETKEVESEVVGFNGQRLFLMPLEEVEGILPGARVYARNGHGDGLQSGKQLPLGPALLGRVLDGGGKPLDGLPAPDTLETGALITPPFNPLQRTPIEHVLDTGVRAINALLTVGRGQRMGLFAGSGVGKSVLLGMMARYTRADVIVVGLIGERGREVKDFIENILGPDGRARSVVIAAPADVSPLLRMQGAAYATRIAEDFRDRGQHVLLIMDSLTRYAMAQREIALAIGEPPATKGYPPSVFAKLPALVERAGNGIHGGGSITAFYTVLTEGDDQQDPIADSARAILDGHIVLSRRLAEAGHYPAIDIEASISRAMTALITEQHYARVRLFKQLLSSFQRNRDLVSVGAYAKGSDPMLDKAITLWPQLEAFLQQGIFERADWEDSLQALDLIFPTV |  | ~6
His-FliI(R26A/R27A/R33A/R76A) (enzyme, FliI of Salmonella enterica, UniProt P26465, with R26A/R27A/R33A/R76A; also called FliI-4A; His-FliI-4A; source: S. enterica SJW1368, pTrc99A-based plasmid co-expressing FliH; in lysate (Ni pull-down) and purified (Ni-NTA, then SEC to remove FliH)) MTTRLTRWLTALDNFEAKMALLPAVAAYGRLTAATGLVLEATGLQLPLGATCIIERQDGPETKEVESEVVGFNGQALFLMPLEEVEGILPGARVYARNGHGDGLQSGKQLPLGPALLGRVLDGGGKPLDGLPAPDTLETGALITPPFNPLQRTPIEHVLDTGVRAINALLTVGRGQRMGLFAGSGVGKSVLLGMMARYTRADVIVVGLIGERGREVKDFIENILGPDGRARSVVIAAPADVSPLLRMQGAAYATRIAEDFRDRGQHVLLIMDSLTRYAMAQREIALAIGEPPATKGYPPSVFAKLPALVERAGNGIHGGGSITAFYTVLTEGDDQQDPIADSARAILDGHIVLSRRLAEAGHYPAIDIEASISRAMTALITEQHYARVRLFKQLLSSFQRNRDLVSVGAYAKGSDPMLDKAITLWPQLEAFLQQGIFERADWEDSLQALDLIFPTV |  | 6

From publication PMC8041783, “A positive charge region of Salmonella FliI is required for ATPase formation and efficient flagellar protein export” (Communications Biology, 2021)
